In patent US20240117029A1 (Hoffmann-La Roche, published 2024):
Residue numbers refer to the chain shown, from its start. Names and notes keep the numbering of the source.

B1: ABN912 (antibody, human IgG1, V domains shown)
VH: EVQLVQSGGGLVQPGGSLRLSCAASGFTFSHYWMSWVRQAPGKGLEWLANIEQDGSEKYYVDSVKGRFTISRDNAKNSLYLQMNSLRAEDTAVYFCARDLEGLHGDGYFDLWGRGTLVTVSS
VL: AIQLTQSPSSLSASVGDRVILTCRASQGVSSALAWYQQKPGKAPKLLIYDASSLESGVPSRFSGSGSGPDFTLTISSLQPEDFATYFCQQFNSYPLTFGGGTKVEIK
notes: Generated as human IgG1 wild type and IgG1 PGLALA with kappa light chain; also called AB912; CCL2-0003
B2: Humanized 11K2 (antibody, human IgG1, V domains shown)
VH: QVQLVQSGAEVKKPGSSVKVSCKASGLTISDTYMHWVRQAPGQGLEWMGRIDPANGNTKFDPKFQGRVTITADTSTSTAYMELSSLRSEDTAVYYCARGVFGFFDYWGQGTTVTVSS
VL: DIQMTQSPSSLSASVGDRVTITCKATEDIYNRLAWYQQKPGKAPKLLISGATSLETGVPSRFSGSGSGTDYTLTISSLQPEDFATYYCQQFWSAPYTFGGGTKVEIK
notes: Generated as human IgG1 wild type and IgG1 PGLALA with kappa light chain; also called CCL2-0002; humanized 11k2 IgG1
B3: 1A4//2F6-PGLALA (bispecific antibody, V domains shown)
VH 1: QSLEESGGDLVKPGASLTLTCTASELDFYWICWVRQAPGKGLEWIACIGAGSSGSTYYASWAKGRFTVSKTSSTTVTLQMTSLTAADTATYFCARTGTEFTYYSLWGPGTLVTVSS
VL 1: ALVMTQTPSSVSAAVGGTVTINCQASQSVYNNNMAWYQQKPGQPPKLLIYTASSLASGVPSHFRGSGSGTQFTLTISDLESDDAATYYCAGYKSYSNDEYGFGGGTEVVVK
VH 2: QSLEESGGGLVQPEGSLTLTCTASGFSFNNNYYMCWVRQAPGKGLEWIGCISTDDSNTHYASWAQGRFTISKASSTALTLQVAGLTVADMATYFCARDAHFTSYGYGFDLWGPGTLVTVSS
VL 2: DIVMTQTPASVSAAVGGTVSINCRASEDIENLVAWYQQKPGQPPKLLIYQASKLASGVPSRFKGSGSGAEFTLTIGDLESADAATYYCQGDYGSGWIMYSFGGGTDLVVK
notes: CrossMab: 1A4 arm VH/VL crossed, 2F6 arm non-crossed with CH1/CL charge modifications, knobs-into-holes, human IgG1 with L234A, L235A, P329G; also called CCL2-0054; P1AA3459
B4: 1A4//2F6-WT IgG1 (bispecific antibody, V domains shown)
VH 1: B3 VH 1
VL 1: B3 VL 1
VH 2: B3 VH 2
VL 2: B3 VL 2
notes: CrossMab: 1A4 arm VH/VL crossed, 2F6 arm non-crossed with CH1/CL charge modifications, knobs-into-holes, human IgG1 wild type Fc; also called CCL2-0057; P1AA3400
B5: 1A5 (antibody, V domains shown)
VH: QEQLVESGGDLVKPEGSLTLTCTASGFSFSTSYWMCWVRQAPGKGLELIACISSSIGVTYYASWAEGRFTISKTSSTTVTLQMTSLTVADTATYFCARTTDDNWNVGFNLWGPGTLVTVSS
VL: AYDMTQTPASVEVGVGGTVTIKCQASQSIGNRYLSWYQQKPGQPPKLLIYGTSTLASGVSSRFKGSGSGTQFTLTISGVESADSATYYCQQGATISYLDNAFGGGTEVVVK
notes: Generated as IgG1 wild type and IgG1 PGLALA with kappa light chain; also called CCL2-0009
B6: 1A4 (antibody, V domains shown)
VH: B3 VH 1
VL: B3 VL 1
notes: also called CCL2-0008
B7: 2F6 (antibody, V domains shown)
VH: B3 VH 2
VL: B3 VL 2
notes: Generated as IgG1 wild type and IgG1 PGLALA with kappa light chain; also called CCL2-0014
B8: murine 11K2 (antibody, V domains shown)
VH: EVQLQQSGAELVKAGASVKLSCPASGLNIKDTYMHWVKQRPEQGLEWIGRIDPANGNTKFDPKFQGKATITADTSSNTAYLQLSSLTSEDTAVYYCARGVFGFFDYWGQGTTLTVSS
VL: DIQMTQSSSSFSVSLGDRVTITCKATEDIYNRLAWYQQKPGSAPRLLISGATSLETGVPSRFSGSGSGKDYTLSITSLQTEDVATYYCQQFWSAPYTFGGGTKLEIK
notes: also called 11K2m; X-0048
B9: 1G9 (antibody, V domains shown)
VH: QSLEESGGDLVKPGASLTLTCKASGIDFSLYSYMCWVRQAPGKGLEWIACVDAGASGSTYYASWAKGRFTISKTSSTTVTLQMTSLTAADTATYFCARGILYYTWPYPAGAIDAFDSWGPGTLVTVSS
VL: AYDMTQTPASVSEPVGGTVTIKCQASESISNYLSWYQQKPGQPPKLLIYKASTLASGVPSRFKGSGSGTEYTVTISGVQSDDAATYYCQQSYSSSNVFNTFGGGTEVVVK
notes: Generated as IgG1 wild type and IgG1 PGLALA with kappa light chain; also called CCL2-0010
B10: CKLO02 IgG1 (bispecific antibody)
heavy 1: not shown
heavy 2: not shown
light 1: QVQLVQSGAEVKKPGSSVKVSCKASGLTISHTYMHWVRQAPGQGLEWMGRIDPDNHNTKFDPKFQGRVTITADTSTSTAYMELSSLRSEDTAVYYCARGVFGFFEHWGQGTTVTVSSASVAAPSVFIFPPSDEQLKSGTASVVCLLNNFYPREAKVQWKVDNALQSGNSQESVTEQDSKDSTYSLSSTLTLSKADYEKHKVYACEVTHQGLSSPVTKSFNRGEC
light 2: EIVLTQSPATLSLSPGERATLSCRASQHVSDAYLAWYQQKPGQAPRLLIYDASDRAEGVPARFSGSGSGTDFTLTISSLEPEDFAVYYCHQYIHLHSFTFGQGTKVEIKRTVAAPSVFIFPPSDRKLKSGTASVVCLLNNFYPREAKVQWKVDNALQSGNSQESVTEQDSKDSTYSLSSTLTLSKADYEKHKVYACEVTHQGLSSPVTKSFNRGEC
B11: CKLO2-GG01 (bispecific antibody)
heavy 1: DIQMTQSPSSLSASVGDRVTITCKAFEDIYNRRAWYQQKPGKAPKLLIHGATSLEHGVPSRFSGSGSGTDYTLTISSLQPEDFATYYCQQFWSAPYTFGGGTKVEIKSSASTKGPSVFPLAPSSKSTSGGTAALGCLVKDYFPEPVTVSWNSGALTSGVHTFPAVLQSSGLYSLSSVVTVPSSSLGTQTYICNVNHKPSNTKVDKKVEPKSCDKTHTCPPCPAPEYLGGDSVFLFPPKPKDVLMISRTPEVTCVVIDVSHEDPEVKFNWYVDGVEVHNAKTKPREEQYNSTYRVVSVLPVLHRDWLNGKEYKCKVSNKALPKPIEKTISKAKGQRREPQVYTLPPCRDELTKNQVSLWCLVKGFYPSDIAVEWESNGQPENNYKTTPPVLDSDGSFFLYSKLTVDKSRWQQGNVFSCSVMHEALHAHYTRKELSLSP
heavy 2: not shown
light 1: B10 light 1
light 2: B10 light 2
B12: CKLO2-SG1095 (bispecific antibody)
heavy 1: B11 heavy 1 with Y226L, L227W, G228N, D230P, V242T, I256V, H260D, Q287L, P299T, K318T
heavy 2: not shown
light 1: B10 light 1
light 2: B10 light 2
B13: CKLO2-GG02 (bispecific antibody)
heavy 1: B11 heavy 1 with M420L, Y428T
heavy 2: not shown
light 1: B10 light 1
light 2: B10 light 2
B14: CKLO2-GG03/GG04 (bispecific antibody)
heavy 1: B11 heavy 1 with D348E, L350M
heavy 2: not shown
light 1: B10 light 1
light 2: B10 light 2

Each binder was assayed against T1, human CCL2 (MCP1) - wild type (wt) (human, UniProt P13500 24-99) (assay: SPR Biacore T200, 25 C, pH 8.3, antibody captured via anti-human Fc, 1:1 model).
T1 construct: Entry is without signal peptide; Made in-house or bought from R&D Systems (279-MC), depending on the assay; monomer-dimer equilibrium; also called wt human CCL2; hCCL2

t½-diss. [h] | Binder
0.583 | B1
19.2 | B2

Each binder was assayed against T1, human CCL2 (MCP1) - wild type (wt) (assay: SPR, 25 C, pH 7.4, antibody captured via anti-human Fc on C1 chip, wt CCL2 as analyte, 1:1 model).

binding result | Binder
binds | B3
binds | B4

What follows are binders tested against T1, human CCL2 (MCP1) - wild type (wt) (assay: SPR Biacore T200, 25 C, pH 7.1, antibody captured via anti-human Fc, 1:1 model).

t½-diss. [h] | Binder
0.333 | B1
3.58 | B2

The binders below were run against T1, human CCL2 (MCP1) - wild type (wt) (assay: SPR Biacore T200, 25 C, pH 6.3, antibody captured via anti-human Fc, 1:1 model).

t½-diss. [h] | Binder
0.05 | B1
19.2 | B2

These binders were tested against T2, human CCL2 (MCP1) - P8A variant (human, UniProt P13500 24-99) (assay: SPR Biacore T200, 37 C, antibody captured, CCL2 as analyte, 1:1 model).
T2 construct: Entry is without signal peptide; P8A prevents dimer formation (pure monomer); made in-house; also called monomeric human CCL2; monomeric CCL2

T½ [h] | Binder
0.417 | B1
2.28 | B5
2.9 | B6
0.783 | B7
8.63 | B8
3.63 | B9
1.93 | B2

The binders below were run against T1, human CCL2 (MCP1) - wild type (wt) in the same assay as above.

T½ [h] | Binder
0.55 | B1
2.67 | B5
1.67 | B6
0.867 | B7
0.317 | B8
2.95 | B9
1.97 | B2

What follows are binders tested against T1, human CCL2 (MCP1) - wild type (wt) (assay: SPR Biacore T200, 25 C, pH 7.4, antibody captured via anti-human Fc, 1:1 model).

t½-diss. [h] | Binder
0.55 | B1
2.72 | B2

The binders below were run against T1, human CCL2 (MCP1) - wild type (wt) (assay: SPR Biacore T200, 25 C, pH 5.5, antibody captured via anti-human Fc, 1:1 model).

t½-diss. [h] | Binder
0.0005 | B1
1.97 | B2

What follows are binders tested against T1, human CCL2 (MCP1) - wild type (wt) (assay: cell-based or functional assay).

IC50, inhibition of THP-1 migration towards recombinant huCCL2 [µg/mL] | Binder
0.2 | B10
0.2 | B11
0.2 | B12
0.2 | B13
0.3 | B14
0.7 | B2

What follows are binders tested against T1, human CCL2 (MCP1) - wild type (wt) (assay: SPR Biacore T200, 25 C, pH 7.9, antibody captured via anti-human Fc, 1:1 model).

t½-diss. [h] | Binder
0.417 | B1
2.75 | B2

What follows are binders tested against T1, human CCL2 (MCP1) - wild type (wt) (assay: SPR Biacore T200, 25 C, pH 5.9, antibody captured via anti-human Fc, 1:1 model).

t½-diss. [h] | Binder
0.0167 | B1
4.78 | B2

Each binder was assayed against T1, human CCL2 (MCP1) - wild type (wt) (assay: SPR Biacore T200, 25 C, pH 6.7, antibody captured via anti-human Fc, 1:1 model).

t½-diss. [h] | Binder
0.133 | B1
4.87 | B2
